Non-standard residues stand in square brackets, D forms with d. NMeY = CN[C@@H](Cc1ccc(O)cc1)C(=O)O; Nle = CCCC[C@H](N)C(=O)O; Aib = CC(C)(N)C(=O)O
B1: CTX-1130 (peptide)
peptide: H-YV[Nle][Aib]HFR[dW]D-NH2
SMILES: CCCC[C@H](NC(=O)[C@@H](NC(=O)[C@@H](N)Cc1ccc(O)cc1)C(C)C)C(=O)NC(C)(C)C(=O)N[C@@H](Cc1c[nH]cn1)C(=O)N[C@@H](Cc1ccccc1)C(=O)N[C@@H](CCCNC(=N)N)C(=O)N[C@H](Cc1c[nH]c2ccccc12)C(=O)N[C@@H](CC(=O)O)C(N)=O
B2: CTX-1142 (peptide)
peptide: H-[dY]V[Nle][dA]HFR[dW]D-NH2
SMILES: CCCC[C@H](NC(=O)[C@@H](NC(=O)[C@H](N)Cc1ccc(O)cc1)C(C)C)C(=O)N[C@H](C)C(=O)N[C@@H](Cc1c[nH]cn1)C(=O)N[C@@H](Cc1ccccc1)C(=O)N[C@@H](CCCNC(=N)N)C(=O)N[C@H](Cc1c[nH]c2ccccc12)C(=O)N[C@@H](CC(=O)O)C(N)=O
B3: CTX-1158 (peptide)
peptide: Ac-[Nle][dA]HFR[dW]DRF-NH2
SMILES: CCCC[C@H](NC(C)=O)C(=O)N[C@H](C)C(=O)N[C@@H](Cc1c[nH]cn1)C(=O)N[C@@H](Cc1ccccc1)C(=O)N[C@@H](CCCNC(=N)N)C(=O)N[C@H](Cc1c[nH]c2ccccc12)C(=O)N[C@@H](CC(=O)O)C(=O)N[C@@H](CCCNC(=N)N)C(=O)N[C@@H](Cc1ccccc1)C(N)=O
B4: CTX-1132 (peptide)
peptide: H-YV[Nle][dF]HFR[dW]D-NH2
SMILES: CCCC[C@H](NC(=O)[C@@H](NC(=O)[C@@H](N)Cc1ccc(O)cc1)C(C)C)C(=O)N[C@H](Cc1ccccc1)C(=O)N[C@@H](Cc1c[nH]cn1)C(=O)N[C@@H](Cc1ccccc1)C(=O)N[C@@H](CCCNC(=N)N)C(=O)N[C@H](Cc1c[nH]c2ccccc12)C(=O)N[C@@H](CC(=O)O)C(N)=O
B5: CTX-1105 (peptide)
peptide: H-YVEGHFR[dW]DRFG-NH2
SMILES: CC(C)[C@H](NC(=O)[C@@H](N)Cc1ccc(O)cc1)C(=O)N[C@@H](CCC(=O)O)C(=O)NCC(=O)N[C@@H](Cc1c[nH]cn1)C(=O)N[C@@H](Cc1ccccc1)C(=O)N[C@@H](CCCNC(=N)N)C(=O)N[C@H](Cc1c[nH]c2ccccc12)C(=O)N[C@@H](CC(=O)O)C(=O)N[C@@H](CCCNC(=N)N)C(=O)N[C@@H](Cc1ccccc1)C(=O)NCC(N)=O
B6: CTX-1108 (peptide)
peptide: H-YV[Nle][dA]HFR[dW]D-NH2
SMILES: CCCC[C@H](NC(=O)[C@@H](NC(=O)[C@@H](N)Cc1ccc(O)cc1)C(C)C)C(=O)N[C@H](C)C(=O)N[C@@H](Cc1c[nH]cn1)C(=O)N[C@@H](Cc1ccccc1)C(=O)N[C@@H](CCCNC(=N)N)C(=O)N[C@H](Cc1c[nH]c2ccccc12)C(=O)N[C@@H](CC(=O)O)C(N)=O
B7: CTX-1145 (peptide)
peptide: Ac-[Nle][dA]HFR[dW]DR[dF]G-OH
SMILES: CCCC[C@H](NC(C)=O)C(=O)N[C@H](C)C(=O)N[C@@H](Cc1c[nH]cn1)C(=O)N[C@@H](Cc1ccccc1)C(=O)N[C@@H](CCCNC(=N)N)C(=O)N[C@H](Cc1c[nH]c2ccccc12)C(=O)N[C@@H](CC(=O)O)C(=O)N[C@@H](CCCNC(=N)N)C(=O)N[C@H](Cc1ccccc1)C(=O)NCC(=O)O
B8: CTX-1547 (peptide)
peptide: H-MGHFR[dW]DRFG-OH
SMILES: CSCC[C@H](N)C(=O)NCC(=O)N[C@@H](Cc1c[nH]cn1)C(=O)N[C@@H](Cc1ccccc1)C(=O)N[C@@H](CCCNC(=N)N)C(=O)N[C@H](Cc1c[nH]c2ccccc12)C(=O)N[C@@H](CC(=O)O)C(=O)N[C@@H](CCCNC(=N)N)C(=O)N[C@@H](Cc1ccccc1)C(=O)NCC(=O)O
B9: CTX-1159 (peptide)
peptide: Ac-[Nle][dA]HFR[dW]DR[dF]-NH2
SMILES: CCCC[C@H](NC(C)=O)C(=O)N[C@H](C)C(=O)N[C@@H](Cc1c[nH]cn1)C(=O)N[C@@H](Cc1ccccc1)C(=O)N[C@@H](CCCNC(=N)N)C(=O)N[C@H](Cc1c[nH]c2ccccc12)C(=O)N[C@@H](CC(=O)O)C(=O)N[C@@H](CCCNC(=N)N)C(=O)N[C@H](Cc1ccccc1)C(N)=O
B10: CTX-1548 (peptide)
peptide: H-YVMGRFR[dW]DRFG-OH
SMILES: CSCC[C@H](NC(=O)[C@@H](NC(=O)[C@@H](N)Cc1ccc(O)cc1)C(C)C)C(=O)NCC(=O)N[C@@H](CCCNC(=N)N)C(=O)N[C@@H](Cc1ccccc1)C(=O)N[C@@H](CCCNC(=N)N)C(=O)N[C@H](Cc1c[nH]c2ccccc12)C(=O)N[C@@H](CC(=O)O)C(=O)N[C@@H](CCCNC(=N)N)C(=O)N[C@@H](Cc1ccccc1)C(=O)NCC(=O)O
B11: CTX-1141 (peptide)
peptide: H-[NMeY]V[Nle][dA]HFR[dW]D-NH2
SMILES: CCCC[C@H](NC(=O)[C@@H](NC(=O)[C@H](Cc1ccc(O)cc1)NC)C(C)C)C(=O)N[C@H](C)C(=O)N[C@@H](Cc1c[nH]cn1)C(=O)N[C@@H](Cc1ccccc1)C(=O)N[C@@H](CCCNC(=N)N)C(=O)N[C@H](Cc1c[nH]c2ccccc12)C(=O)N[C@@H](CC(=O)O)C(N)=O

Molecular target: human MC3R (human, UniProt P41968 1-323)
Assay: cell-based or functional assay

Sequence of human MC3R (P41968 whole entry): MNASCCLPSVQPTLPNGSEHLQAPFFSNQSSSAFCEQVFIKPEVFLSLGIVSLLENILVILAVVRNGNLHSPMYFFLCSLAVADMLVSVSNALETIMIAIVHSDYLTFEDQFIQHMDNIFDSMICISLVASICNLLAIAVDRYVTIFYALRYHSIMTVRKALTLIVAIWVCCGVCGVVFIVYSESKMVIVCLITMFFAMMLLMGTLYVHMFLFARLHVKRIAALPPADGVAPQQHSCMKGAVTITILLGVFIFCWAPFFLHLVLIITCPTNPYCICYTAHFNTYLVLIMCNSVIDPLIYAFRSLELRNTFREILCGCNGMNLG

Binder | MC3R cAMP (EC50) | MC3R selectivity (relative to MC4R)
B1 | 26.5 nM | 58
YVXAHFRWDRFG (Nle at 3; D-Ala at 4; Phe(4-I) at 6; D-Trp at 8) [CTX-2122] | 3.2 nM | 324
YVXXHFRWDRFG (Nle at 3; Aib at 4; D-Trp at 8) [CTX-1134] | 2.5 nM | 566
YVXAHFRWDRFG (Nle at 3; D-Ala at 4; Phe(4-Br) at 6; D-Trp at 8) [CTX-2120] | 2.3 nM | 173
B2 | 36 nM | 54
YVXAHFRWDRFG (Nle at 3; D-Ala at 4; D-Trp at 8; D-Arg at 10) [CTX-1126] | 3 nM | 43
B3 | 2.6 nM | 535
YVXAHFRWDRFG (Nle at 3; D-Ala at 4; D-Trp at 8) [CTX-1103] | 4.3 nM | 229
B4 | 3.9 nM | 6.8
B5 | 20 nM | 500
YVXAHFRWDRFG (Nle at 3; D-Ala at 4; Phe(4-Cl) at 6; D-Trp at 8) [CTX-2121] | 2.5 nM | 93
B6 | 12 nM | 79
B7 | 52.9 nM | 535
YVXAHFRWDRFG (Nle at 3; D-Ala at 4; D-Trp at 8; D-Phe at 11) [CTX-1127] | 2.5 nM | 95
B8 | 1.5 nM | 54
B9 | 14.3 nM | 213
B10 | 3.8 nM | 267
YVXGRFRWDRFG (Nle at 3; D-Trp at 8) [CTX-1549] | 2.4 nM | 102
B11 | 2.2 nM | 55

— patent US20240287154A1, “MC3R AGONIST PEPTIDES” (The Regents of the University of Michigan, priority 2021, published 2024)
